The values below come from US20240261221A1, “POLYOL-MODIFIED LIPID COMPOUND AND PREPARATION METHOD AND APPLICATION THEREOF” (JENKEM TECHNOLOGY CO., LTD. (TIANJIN), priority 2021, published 2024).

The test system of one data set is KDR mRNA. The data set is described as follows: Gene inhibitory effect of siRNA-PEG-lipid particle composition after cell delivery in A375 cells. In kind it is cell-based. As to conditions: particles prepared from PEG-lipids and anti-KDR siRNA, 24 h and 48 h after transfection. How it is done:
(1) ARPE-19 cells were cultured in a DMEM/F12+12% FBS+double antibody medium (containing 100 U/mL Penicillin, 100 μg/mL Streptomycin) and placed in an incubator at 37° C. with 5% CO2 and saturated humidity. 24 h before the experiment, the cells were seeded onto a 12-well plate at 1.2×10^5 cell/well and cultured overnight. (2) 50 μL of diluted anti-KDR siRNA:compound 1 (1:10), anti-KDR siRNA:compound 2 (1:10), and anti-KDR siRNA:compound 3 (1:10) (in molar ratios: the siRNA concentration was 20 μM) from […] with an OPTI-MEM culture medium were separately mixed with 50 μL of a diluted Lipofectamine 3000™ transfection reagent from 3 μL with an OPTI-MEM culture medium for positive control, followed by gently shaking, and the mixed solutions were left to stand for 15 min. In addition, a blank group, an NC group, and an NC-RL group were set.
Anti-KDR siRNA is an siRNA that inhibits VEGFR2 mRNA expression, and the preparation method therefor is described in patent document CN202010229195.2: the sequence is as follows: • Sense strand: 5′-GGAGUGAGAUGAAGAAAUU-3′; • Antisense strand: 5′-AAUUUCUUCAUCUCACUCC-3′. (3) The medium was refreshed for the cells in each well in the cell plate, an antibiotic-free culture medium was added at 900 μL/well, and then 100 μL of the mixed solution was added into each well, finally the total volume of each well being 1000 μL. The siRNA (or siRNA NC, or siR-NC RL) transfection concentration was 50 nM. (4) 24 h and 48 h after transfection, the 12-well plate was taken out from the incubator at 37° C. with 5% CO2, and the cells were harvested for RNA extraction for subsequent detection.
The relative expression level of KDR mRNA was calculated by AACt with GAPDH as an endogenous reference gene: mRNA expression levels were normalized for each group with the expression level for the blank group as 100%.
The foregoing procedure was similar to that of Example 4 except that the culture medium for the A375 cells was a DMEM culture medium containing 10% FBS (containing 100 U/mL Penicillin, 100 μg/mL of Streptomycin).

Another data set deals with IgE. The data set is described as follows: Plasma IgE level after challenge administration in guinea pigs. It is filed as in vivo. Conditions: guinea pig plasma, 40 min after challenge. The protocol:
48 healthy guinea pigs which were fed with food normally for 5 days were randomly divided into 6 groups, with 8 guinea pigs for each group. Group A: negative control group (0.9% sodium chloride injection): group B: positive control group (0.15 mg/mL ovalbumin solution. available from Sigma. USA, lot No. DHO15-4): group C: M-PEG47-DTDPAM (i.e., compound 1. prepared in Example 1); group D: M-PEG47-DTDPA (i.e., compound 2. prepared in Example 2): group E: M-DTDPAM-2000 (available from Tianjin JenKem Technology Co., Ltd., lot No. ZZ409P002); group F: M-DTDPA-2000 (available from Tianjin JenKem Technology Co., Ltd., lot No. ZZ409P004).
Sensitization was carried out by intraperitoneal injection, and the administration was carried out once every other day at a volume of 1 mL/guinea pig for 4 times in total. On the second day after the last sensitization, each group of guinea pigs was challenged by applying a corresponding liquid medicine to the toes thereof via intravenous injection at a dose of 2 mL/guinea pig. The animal state was observed daily during sensitization, the reaction of guinea pigs was continuously observed for 40 min at 15 min before and after challenging via intravenous injection, and the time of onset and disappearance of symptoms was recorded. Blood was collected 40 min after challenging and drug withdrawal, anticoagulated with heparin, and made into blood plasma.

A further data set deals with histamine. The data set is described as follows: Plasma histamine level after challenge administration in guinea pigs. In kind it is in vivo, guinea pig. How it is done:
(§1) 48 healthy guinea pigs which were fed with food normally for 5 days were randomly divided into 6 groups, with 8 guinea pigs for each group.
(§2) Sensitization was carried out by intraperitoneal injection, and the administration was carried out once every other day at a volume of 1 mL/guinea pig for 4 times in total. On the second day after the last sensitization, each group of guinea pigs was challenged by applying a corresponding liquid medicine to the toes thereof via intravenous injection at a dose of 2 mL/guinea pig. […] Blood was collected 40 min after challenging and drug withdrawal, anticoagulated with heparin, and made into blood plasma.

In another data set the test system is guinea pigs. Briefly: Allergy study of PEG-lipids in guinea pigs: systemic sensitization symptom grading. It is filed as in vivo, guinea pig. The protocol: as §1, §2
During sensitization and at the time of challenge administration, animals were observed and recorded for the onset and duration of symptoms, such as nasal scratching, sneezing, restlessness, jumping, panting, and purpura, and the score and grade of symptoms were determined according to the criteria for grading symptoms of systemic sensitization (Table 3).

With `CCCCCCCCCCCCCCN(CCCCCCCCCCCCCC)C(=O)CCOCCOCCOCCOCCOCCOCCOCCOCCOCCOCCOCCOCCOCCOCCOCCOCCOCCOCCOCCOCCOCCOCCOCCOCCOCCOCCOCCOCCOCCOCCOCCOCCOCCOCCOCCOCCOCCOCCOCCOCCOCCOCCOCCOCCOCCOCCOCCOC` [compound 1], the “inhibitory effect on KDR mRNA (relative expression level of KDR mRNA)” value in the data set with KDR mRNA was “significant and continuous inhibitory effect”.
Same read-out and setting: with `CCCCCCCCCCCCCCN(CCCCCCCCCCCCCC)CCCOCCOCCOCCOCCOCCOCCOCCOCCOCCOCCOCCOCCOCCOCCOCCOCCOCCOCCOCCOCCOCCOCCOCCOCCOCCOCCOCCOCCOCCOCCOCCOCCOCCOCCOCCOCCOCCOCCOCCOCCOCCOCCOCCOCCOCCOCCOCCOC` [compound 2] the entry was “significant and continuous inhibitory effect”.
On the same count and under the same terms, the same measure for `CCCCCCCCCCCCCC(=O)OCC(COCCOCCOCCOCCOCCOCCOCCOCCOCCOCCOCCOCCOCCOCCOCCOCCOCCOCCOCCOCCOCCOCCOCCOCCOCCOCCOCCOCCOCCOCCOCCOCCOCCOCCOCCOCCOCCOCCOCCOCCOCCOCCOCCOCCOCCOCCOC)OC(=O)CCCCCCCCCCCCC` (centres unmarked) [compound 3]: “significant and continuous inhibitory effect”.

B1: Positive control group: 0.15 mg/mL ovalbumin solution, available from Sigma, USA (protein, UniProt P01012 2-386, looked up)
Ovalbumin: GSIGAASMEFCFDVFKELKVHHANENIFYCPIAIMSALAMVYLGAKDSTRTQINKVVRFDKLPGFGDSIEAQCGTSVNVHSSLRDILNQITKPNDVYSFSLASRLYAEERYPILPEYLQCVKELYRGGLEPINFQTAADQARELINSWVESQTNGIIRNVLQPSSVDSQTAMVLVNAIVFKGLWEKAFKDEDTQAMPFRVTEQESKPVQMMYQIGLFRVASMASEKMKILELPFASGTMSMLVLLPDEVSGLEQLESIINFEKLTEWTSSNVMEERKIKVYLPRMKMEEKYNLTSVLMAMGITDVFSSSANLSGISSAESLKISQAVHAAHAEINEAGREVVGSAEAGVDAASVSEEFRADHPFLFCIKHIATNAVLFFGRCVSP
The molecule B1 displayed an IgE level in the data set on IgE of 286.33 ± 34.67 ng/mL. Moreover, the “plasma histamine level compared with group A” value with histamine (guinea pig plasma after challenge) is given as “significantly different from that of group A”. This molecule displayed a Histamine level in the data set on histamine (guinea pig plasma, 40 min after challenge) of 12.21 ± 4.25 ng/mL. In addition, the “Allergic symptoms (grade)” value in the data set with guinea pigs (after challenge administration, grade per Table 3) is “extremely positive”. Moreover, the Mean score in the data set with guinea pigs (i.p. sensitization 4 times, i.v. challenge, scoring per Table 3) amounted to 2.8.
